B1: zsig37CEE: zsig37 polypeptide having a C-terminal Glu-Glu tag (protein)
chain: LVLSRVPHVQGEQQEWEGTEELPSPPDHAERAEEQHEKYRPSQDQGLPASRCLRCCDPGTSMYPATAVPQINITILKGEKGDRGDRGLQGKYGKTGSAGARGHTGPKGQKGSMGAPGERCKSHYAAFSVGRKKPMHSNHYYQTVIFDTEFVNLYDHFNMFTGKFYCYVPGLYFFSLNVHTWNQKETYLHIMKNEEEVVILFAQVGDRSIMQSQSLMLELREQDQVWVRLYKGERENAIFSEELDTYITFSGYLVKHATEPEEYMPME

Experiments:
[1] = tested on: template bleeding time; set-up: species or system Macaca fascicularis; details: cynomolgus monkey, in vivo
Source text: In order to evaluate one aspect of the safety of zsig37 and its effect on template bleeding time, a pre-clinical model in Macaca fascicularis was used. Time to cessation of bleeding from standardized incisions on the animal's forearm, a procedure previously described by Wu, et al., Blood, 2002, 99:3623-3628, was employed to assess the effect of zsig37 on bleeding.
Methods. Five female and twelve male, Macaca fascicularis weighing 2.3 to 4.6 kg were used as test subjects on this project. The animals were immobilized with ketamine hydrochloride (Phoenix Scientific) administered intramuscularly at approximately 10 mg/kg. Each animal was examined, and the animal determined to be acceptable for the study. The right forearm, abdomen, ventral neck and inguinal area were shaved free of hair. The animal was transported to the surgical suite (University of Washington Regional Primate Research Center), positioned inside a heated air circulation system and placed onto isoflurane (Abbott Laboratories) inhalation anesthesia delivered through positive pressure ventilation via an endotracheal tube. […] The time to cessation of bleeding was determined and recorded for each animal. Bleeding times were determined for each animal prior to any treatment, after low molecular weight heparin (Lovenox™, Rhone Polenc, Inc.) treatment and after zsig37 treatment.

[2] = tested on: TF-1 cells; assay: Adhesion and spreading of TF-1 cells on zsig37-coated plates; format: cell-based; details: plates coated in PBS vs 0.1 M NaCO3
Procedure: The ability of zsig37 to stimulate adhesion and spreading of TF-1 cells was assayed as follows. A series of dilutions were prepared from C-terminal Glu-Glu-tagged zsig37, from 10 to 0.0625 ’g/ml, in either PBS or ELISA coating buffer (0.1 M NaCO3) and each was plated into a 96 well plate (Costar; Pleasanton, Calif.) at 100 μl/well. The plates were incubated at 37° C., 5% CO2 for 2 hours. The plates were then washed 3× with RPMI/10% FBS (RPMI 1640, 2 mM L-glutamine, 110 μg/ml sodium pyruvate, PSN and 10% heat inactivated fetal bovine serum) and allowed to block for 15 minutes.
TF-1 cells (derived from acute myeloid leukemia cells) were resuspended in RPMI/10% FBS and plated into at 10,000 cells/well into the zsig37CEE-coated 96 well plates at a final volume of 120 μl/well. The plate was incubated at 37° C. under 5% CO2 for 2 hours. The plates were then washed 3× with PBS and 200 μl/well growth media (RPMI/10% FBS, 5 ng/ml GM-CSF) was added. The cells were microscopically inspected before and after the wash.
A dye incorporation assay was also used to measure the number of adherent cells based on a colorimetric change and an increase in fluorescent signal. ALAMAR BLUE (AccuMed; Chicago, Ill.) was added to the 96 well plates and the cells were incubated at 37° C. under 5% CO2 overnight. […]

Row | Molecule | template bleeding time vs control (1.0 mg/kg BSA) [1] | adherent cells (ALAMAR BLUE dye incorporation) [2]
1 | ReoPro: comparator in template bleeding time study, 0.25 mg/kg [reference compound] | unable to stop their bleeding | 
2 | B1 |  | more adherent cells on the C-terminal Glu-Glu tagged (zsig37CEE)-PBS coated plates than on the zsig37CEE-0.1 M NaCO3 coated plates
